These are literature values, as cited in paper PMC7677405.

For this data set, the target named is insulin receptor (Homo sapiens) (UniProt P06213).
Chain of UniProt P06213 (P06213 763-1382): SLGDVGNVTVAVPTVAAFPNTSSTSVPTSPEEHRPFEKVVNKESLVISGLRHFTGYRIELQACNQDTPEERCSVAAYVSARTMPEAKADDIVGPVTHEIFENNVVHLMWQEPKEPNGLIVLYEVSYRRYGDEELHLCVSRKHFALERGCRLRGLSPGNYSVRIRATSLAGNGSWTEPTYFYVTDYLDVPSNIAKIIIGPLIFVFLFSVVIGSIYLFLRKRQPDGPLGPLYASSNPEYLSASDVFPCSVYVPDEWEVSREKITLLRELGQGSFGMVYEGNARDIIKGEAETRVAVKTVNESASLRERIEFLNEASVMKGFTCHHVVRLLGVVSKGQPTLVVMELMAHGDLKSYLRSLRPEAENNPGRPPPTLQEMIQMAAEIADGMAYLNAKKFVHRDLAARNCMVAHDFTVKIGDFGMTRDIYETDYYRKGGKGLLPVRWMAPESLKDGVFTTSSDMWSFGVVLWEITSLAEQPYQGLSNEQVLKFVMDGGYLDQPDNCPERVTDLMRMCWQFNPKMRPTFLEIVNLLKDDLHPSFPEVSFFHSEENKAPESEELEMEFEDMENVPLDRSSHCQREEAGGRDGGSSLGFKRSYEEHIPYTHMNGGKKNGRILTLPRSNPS

Chain of insulin (P01308 90-110): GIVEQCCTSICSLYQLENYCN

For the substance insulin (from UniProt P01308), the Kd (as a rule, the constant that tells how readily two partners part at equilibrium) is 28 nM.
